EC50 of block of K+ currents, two-electrode voltage clamp on Xenopus oocytes data for 2 substances are collected here from paper doi:10.1101/2020.06.15.153577.

Experiment [1] deals with Drosophila Shaker channel (ShakerIR) (Drosophila) (UniProt P08510).
The target of a further experiment is ShakerKD (Drosophila) (UniProt P08510).

Turning to Conkunitzin-C1 (peptide), the EC50 of block of K+ currents, two-electrode voltage clamp on Xenopus oocytes in experiment [1] is 2200 nM; with ShakerKD (Drosophila), 108 nM.
For Conkunitzin-C3 (peptide) the same measures were 166 nM and 190 nM.
